{"source": "the DeepSol protein solubility set", "data": [{"test": "soluble on expression in E. coli; label from the status in PepcDB or PDB records", "values": [{"sequence": "MPMPSEKTLVIIPTYNELENLPLITGRVRKANPNVDILIVDDNSPDGTGEAADALAASDSHIKVLHREGKGGLCGAYVAGFQWGLERDYTVLCEMDADGSHAPEQLHLLLAQVDNGADLVIGSRYVPGGKVVNWPKNRWVLSKGGNIYISLALGAGLSDMTAGYRAFRREVLETVDLNELSNAGYIFQVDMAWRVIQLGFDVREVPITFTEREIGESKLDGSFVKDSLLEVTKWGIHHRKEQITNLYTESSRLIRHEISSFRKKHLI", "soluble on expression in E. coli": "not soluble"}, {"sequence": "MGSDKIHHHHHHMLTGQRRRESRSRQGSGFPTISYPRIRDGANRPRTRMSPLPEAVPFFSQWETPDMTLAVLADGAEVALRRDLLWQGSGAESLDEYAVWAANICGMACLKMILATRGEIVPTIELARRCTRYGGYVVNEGSIKGLIYAPFVSFVQAEFSLEAQVMTNVATSDIPAILRQSRFFIASVSSSIRWPEGEPPSKGGHLVLVTAASDDGFRFHNPSGHTSVTQANAVLAPADFDRFFANRGIAITI", "soluble on expression in E. coli": "not soluble"}, {"sequence": "MAIDYSKWDKIELSDDSDVEVHPNVDKKSFIKWKQQSIHEQRFKRNQDIKNLETQVDMYSHLNKRVDRILSNLPESSLTDLPAVTKFLNANFDKMEKSKGENVDPEIATYNEMVEDLFEQLAKDLDKEGKDSKSPSLIRDAILKHRAKIDSVTVEAKKKLDELYKEKNAHISSEDIHTGFDSSFMNKQKGGAKPLEATPSEALSSAAESNILNKLAKSSVPQTFIDFKDDPMKLAKETEEFGKISINEYSKSQKFLLEHLPIISEQQKDALMMKAFEYQLHGDDKMTLQVIHQSELMAYIKEIYDMKKIPYLNPMELSNVINMFFEKVIFNKDKPMGKESFLRSVQEKFLHIQKRSKILQQEEMDESNAEGVETIQLKSLDDSTELEVNLPDFNSKDPEEMKKVKVFKTLIPEKMQEAIMTKNLDNINKVFEDIPIEEAEKLLEVFNDIDIIGIKAILENEKDFQSLKDQYEQDHEDATMENLSLNDRDGGGDNHEEVKHTADTVD", "soluble on expression in E. coli": "soluble"}, {"sequence": "GEKTYVKRLVKILLLGAGESGKSTFLKQMRIIHGQDFDQRAREEFRPTIYSNVIKGMRVLVDAREKLHIPWGDNKNQLHGDKLMAFDTRAPMAAQGMVETRVFLQYLPAIRALWEDSGIQNAYDRRREFQLGESVKYFLDNLDKLGVPDYIPSQQDILLARRPTKGIHEYDFEIKNVPFKMVDVGGLRSERKRWFECFDSVTSILFLVSSSEFDQVLMEDRQTNRLTESLNIFETIVNNRVFSNVSIILFLNKTDLLEEKVQVVSIKDYFLEFEGDPHCLRDVQKFLVECFRGKRRDQQQRPLYHHFTTAINTENIRLVFRDVKDTILHDNLKQLMLQ", "soluble on expression in E. coli": "soluble"}, {"sequence": "MAHHHHHHMSFHPRDAFILHQEYIQRLNEGDEVDTSAEQKVELNLQRHADSESAATVTFSHEDHTLGNPLRHVIMEDPSVTSAGYAIPHPLEAKMQLHVQSSEYAVETVAKGLERLAAICDETLKSFNACVEAISAEDPEGH", "soluble on expression in E. coli": "not soluble"}, {"sequence": "MKLLILGNHTCGNRGDSAILRGLLDAINILNPHTEVDVMSRYPVSSSWLLNRPVMGDPLFLQMKQHNSAAGVVGRVKKVLRRRYQHQVLLSRVTDTGKLRNIAIAQGFTDFVRLLSGYDAIIQVGGSFFVDLYGVPQFEHALCTFMAKKPLFMIGHSVGPFQDEQFNQLANYVFGHCDALILRESVSLDLMKRSNITTAKVEHGVDTAWLVDHHTEDFTASYAVQHWLDVAAQQKTVAITLRELAPFDKRLGTTQQVYEKAFAGVVNRILDEGYQVIALSTCTGIDSYNKDDRMVALNLRQHISDPARYHVVMDELNDLEMGKILGACELTVGTRLHSAIISMNFATPAIAINYEHKSAGVMQQLGLPEMAIDIRHLLDGSLQAMVADTLGQLPALNARLSEAVSRERQTGMQMVQSVLERIGEVK", "soluble on expression in E. coli": "soluble"}, {"sequence": "GAMAWGSSWLLLKNLTAQIDGPTLRTLCMQHGPLVSFHPYLNQGIALCKYTTREEANKAQMALNNCVLANTTIFAESPSENEVQSIMQH", "soluble on expression in E. coli": "soluble"}, {"sequence": "MAHHHHHHMGAKILTKIQREKLVEWENCVSVIEAAILKHKYKQKVNKNIPSLLRVQAHIRKKMV", "soluble on expression in E. coli": "not soluble"}, {"sequence": "MGHHHHHHSHMKNSEESSSSSEDTNNATDTNTSESQDISVNGPEKVGDVYEIDGGTAKVMAISNKETTVKTGPIQFTVKKVIAAVANEQLPFIDVQIESENTSDEVVRFRPSLAQLATSTGVQIDEPSLLESDRLLDEYVGKVNDSGSIIYVFDNEEDIKDLESIRLRISSPFNEDLKNLGDKLDLKINLEH", "soluble on expression in E. coli": "soluble"}]}]}
